From the supplement of paper PMC9732359
± gives the uncertainty stated by the source.

Assay: protein stability index of a GFP-peptide fusion (yeast GPS) (PSI 1-4); higher = more stable; sorted into four equal gates, so the index is relative within each strain
Conditions: pdr5∆
Method in brief: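 Tiled 17-residue peptides from yeast proteins were fused downstream of GFP on a plasmid that also expresses Cherry, and the pooled library was carried in yeast. Mid-log cultures grown in leucine-free medium were sorted into four equal gates by GFP/Cherry fluorescence ratio. Plasmids from each gate were PCR-amplified and Illumina-sequenced, and reads were assigned to strains by barcodes. Each peptide's protein stability index is the sum, over gates, of the gate's read frequency multiplied by its gate number.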

| Sequence | protein stability index |
| --- | --- |
| PRSDAQAIKEASYVNIP [RPS0A] | 2.76 ± 0.048 |
| PRVKGFKMNEIVPLHSP [SEC65] | 3.01 ± 0.12 |

Same assay, conditions: san1∆

| Sequence | protein stability index |
| --- | --- |
| NSTHLLPLQPIEIDYTV [SNF12] | 2.27 ± 0.051 |
| NSVRNSLLLAHFFSKSC [NUT1] | 1.19 ± 0.078 |
| NTEEKAELQSNLQVELL [YGL100W/SEH1] | 1.96 ± 0.13 |
| NTFGSSSLFNNSTNSNT [YJL041W/NSP1] | 3.12 ± 0.041 |
| NTFNYDVKISNDFFDNG [RPN4] | 2.52 ± 0.091 |
| NTGDGSISTYKDILNLA [ECM29] | 3.04 ± 0.081 |
| NTGLLNKANIQALIHGL [RPN11] | 2.09 ± 0.28 |
| NTHLGARNVQVHQEPYV [RPS0A] | 2.59 ± 0.09 |
| NTIIRDGSKMLKRADYT [RPN14] | 3.65 ± 0.039 |
| NTLGKGQNCLDIDGIMD [SNU114] | 3.02 ± 0.12 |
| NTLRKCYPQFAERDSQG [UBP6] | 2.79 ± 0.15 |
| NTNLMNGVNVQIDQLNR [GRR1] | 2.88 ± 0.049 |
| NTPLVGAAFKVISNLVP [YJL039C/NUP192] | 2.73 ± 0.16 |
| NTSAATVHTATSSSIIL [SSN2] | 2.61 ± 0.045 |
| NTTDPLGHTKAALGEVA [SIR2] | 2.67 ± 0.088 |
| NTTKPAFGGLNFGGGNN [YJL041W/NSP1] | 3.01 ± 0.045 |
| NTVVGISGDISDMQHIE [PRE4] | 3.15 ± 0.17 |
| NVDQTKTQCPNYDTCGG [RPC11] | 3.06 ± 0.08 |
| NVEKPSSKPAFNLISNA [YLR335W/NUP2] | 3.14 ± 0.048 |
| NVLLLDSNGDFNEDQLF [RRP46] | 3.32 ± 0.055 |
| NVMLEKIKDNKEKIKNN [RPT5] | 2.55 ± 0.099 |
| NVNSRNQLVEPNRIKLS [SRB5] | 2.48 ± 0.059 |
| NVPWPQNSYADKVTSQA [RPP1] | 1.83 ± 0.1 |
| NVSNTFNKTTNIDINNE [YJL041W/NSP1] | 2.68 ± 0.073 |
| NVTSFMPFWKFFMKNFP [SRB8] | 1.43 ± 0.068 |
| NVVEVMDMNEIEDKENS [RPT5] | 2.26 ± 0.067 |

| Sequence | protein stability index |
| --- | --- |
| NWRGREHWKVRNFKKAN [BRN1] | 3.52 ± 0.075 |
| NWSKEDLQKLLKGIQEF [SWI3] | 3.09 ± 0.05 |
| NYASVYPVVEVERGRVG [RRP43] | 3.43 ± 0.093 |
| NYEDVGRFLRVPKEGLF [BRR2] | 3.42 ± 0.078 |
| NYEIVFDTVSNKLFTEP [YMR129W/POM152] | 2.88 ± 0.055 |
| NYIINDIKKNNKIKLNI [SRB8] | 3.04 ± 0.2 |
| NYNSTSRSTEKKNDMNT [SIR4] | 2.61 ± 0.079 |
| NYTKDNEYYPMCEQALS [YCS4] | 2.6 ± 0.071 |
| NYVAVGDVSNLPYLDEL [QCR2] | 2.97 ± 0.099 |
| NYYSNKSNSTGNISSST [REC8] | 2.85 ± 0.059 |
| NYYYLFDKKSFFNGKAL [PRP8] | 2.91 ± 0.055 |
| PAFSFGISNGSESKDSD [YLR335W/NUP2] | 3.12 ± 0.063 |
| PAFSFNSSVGNKTDAQA [YJL041W/NSP1] | 2.85 ± 0.1 |
| PAFSNSNGFNNVTFGSK [YMR153W/NUP53] | 3.1 ± 0.037 |
| PAFTFGAQKDNEKKTEE [YJL041W/NSP1] | 3.11 ± 0.26 |
| PAGTSLFGNNAGNTTTG [YGL172W/NUP49] | 2.88 ± 0.11 |
| PAPINSLSRDFVMKTRR [SNU114] | 2.97 ± 0.049 |
| PCLSRSCTKCPQIVVPD [DIS3] | 2.63 ± 0.033 |
| PDFKPWEHTAAEDQILA [SRB8] | 3.03 ± 0.075 |
| PDGSFEDWSVEELIVDL [RPO26] | 3 ± 0.13 |
| PDGVVVHRDDPALVGKL [SNF6] | 3.36 ± 0.054 |
| PEDAQLLLAANTHLGAR [RPS0A] | 1.63 ± 0.12 |
| PEELARILQQLKLDKII [RGR1] | 3.15 ± 0.076 |
| PEILRFKVYEPLLLVGL [RPS16A] | 2.1 ± 0.18 |
| PESIDTILSSKLSNIWM [SRB2] | 2.92 ± 0.054 |
| PETGDHVVGRIAEVGNK [RRP4] | 3.05 ± 0.1 |

| Sequence | protein stability index |
| --- | --- |
| PEYAKVGDFLLQYANNA [SIN4] | 2.5 ± 0.066 |
| PFKFGKTSEKSENHTES [YOR098C/NUP1] | 3.1 ± 0.15 |
| PFSFSSATSTTEQTKSK [YLR335W/NUP2] | 2.85 ± 0.075 |
| PGHEMEDFLDKSYYLNT [AAR2] | 2.81 ± 0.065 |
| PGMPNMPGMPNMPGMPK [SRP54] | 3.21 ± 0.25 |
| PGPLPDTDSKPSSQSQN [YLR018C/POM34] | 3.17 ± 0.063 |
| PGQKMSLFSHRKHTRGD [BRN1] | 3.31 ± 0.15 |
| PIDDTMTLLTDSLRKLY [MTW1] | 1.73 ± 0.093 |
| PIKNRKNDTHYLLPDDF [BRN1] | 2.85 ± 0.061 |
| PIMFQDFDDSTAQEINF [IRR1] | 2.52 ± 0.053 |
| PISAVLRGCKFLQSVDI [GRR1] | 1.83 ± 0.052 |
| PISEKGLTLSTTNLDID [RPP1] | 3.05 ± 0.034 |
| PITGASLDLIKERRSLK [RPL24A] | 3.02 ± 0.067 |
| PITSETAMKKVEDGNIL [RPL25] | 3.12 ± 0.22 |
| PKARQELPTQLALEIIV [RRP46] | 1.52 ± 0.11 |
| PKASSAKFFLNVSDEQL [ITC1] | 3.17 ± 0.063 |
| PKDPSNVETYEQILQWV [BRR2] | 2.91 ± 0.11 |
| PKMKDEEYDDDDDNSNV [SNF2] | 3.23 ± 0.072 |
| PKNIEPPLTSQYSTRHD [SWI3] | 3.04 ± 0.041 |
| PKNQQYRAFGSIWQVKD [MED7] | 2.54 ± 0.08 |
| PKNSKTPQSKGFVRNSF [RPO31] | 2.92 ± 0.12 |
| PKNYSLHGLRSFYDAIF [YJL039C/NUP192] | 2.37 ± 0.043 |
| PKSTKGKILTIKQQQQQ [YML103C/NUP188] | 2.42 ± 0.062 |
| PKYIDELKTRDATNTSY [SWP82] | 2.58 ± 0.079 |
| PLLARKQFVVDVLHPNR [RPS24A] | 1.72 ± 0.12 |
| PLLESFITFSLDDWISI [IRR1] | 2.5 ± 0.054 |

| Sequence | protein stability index |
| --- | --- |
| PLLPIVEELMKKRRGSR [SNU114] | 2.87 ± 0.074 |
| PLLSLDVTPISMFGSDQ [RPN4] | 3.12 ± 0.13 |
| PLLYNSLCTVWKPNPSY [SRB5] | 2.21 ± 0.11 |
| PLPPRIDPSVTMMTVEE [RPT1] | 2.12 ± 0.17 |
| PLPTPFKVDDNVDFPSA [RPN2] | 2.6 ± 0.074 |
| PLSQDELISLRKILESS [YIL149C/MLP2] | 2.15 ± 0.076 |
| PMVSVMKMDKSPTESYS [RPT2] | 1.11 ± 0.2 |
| PNEFEIQLSTVNRQSPL [RGR1] | 2.69 ± 0.054 |
| PNELSQILTVDPKTSLR [RPC82] | 2.33 ± 0.067 |
| PNPNNMKTVQSPMGAQP [GAL11] | 2.96 ± 0.12 |
| PNRIKLSKEVPFSYLID [SRB5] | 1.98 ± 0.1 |
| PNSSANNNPLQQQSSQN [GAL11] | 3.02 ± 0.033 |
| PPAYALLGSCQTDGMGL [RPC25] | 2.22 ± 0.19 |
| PPPAPHNLHPQIGQVPL [SNF5] | 2.8 ± 0.045 |
| PQDILSKLYLLLARVFE [SNF11] | 2.2 ± 0.069 |
| PQENDLESKMSEVGDAF [SMC3] | 3.43 ± 0.11 |
| PQIRQEIEQLDQYIQKQ [YGL172W/NUP49] | 2.54 ± 0.054 |
| PQKYVLHPQLHEVQYQE [SIN4] | 2.15 ± 0.14 |
| PQQNKTPFSFGTANNNS [YJL041W/NSP1] | 3.12 ± 0.035 |
| PQSAPNQMGMGTNNGMS [YOR098C/NUP1] | 3.29 ± 0.098 |
| PRDLLRVIIQELRFPSP [PRP28] | 1.78 ± 0.064 |
| PRGVLLYGPPGTGKTML [RPT3] | 2.9 ± 0.081 |
| PRQLHNTHWGLVCPAET [RPB2] | 1.47 ± 0.12 |
| PRSDAQAIKEASYVNIP [RPS0A] | 2.71 ± 0.058 |
| PRVKGFKMNEIVPLHSP [SEC65] | 3.09 ± 0.079 |
